Molecular target: T1, hSOD1-A4V-myc (Homo sapiens, UniProt P00441, point mutant)
T1 construct: human SOD1 with the ALS mutation A4V; source: HEK-293T/17, transiently transfected (pcDNA), in lysate; not shown: myc, C-terminal, kept
Test: co-IP; soluble lysate of transfected HEK-293T/17 cells (PBS + 0.1% Triton X-100) immunoprecipitated with 2 µg HuMab and protein A sepharose; immunoblot with anti-myc 9E10
Details: one partner purified

Binder | binding result
HuMab 16_(L-40) (antibody, V domains shown) VH: EVQLVQSGGGLGHPGGSLRLSCAGSGFTFSSYSMHWLRQAPGKGLKWVSAIGTAGGTYYADSVKGRFTISRDNAKNSFYLQMNSLRAEDMAVYYCAREYFFGSGNYGYWGQGTLVTASS VL: not shown | binds
HuMab 22c (antibody, V domains shown) VH: QVQLVESGGGVVQPGRSLRLSCAASGFTFRSYGMHWVRQAPGKGLEWVTLIWYDGSNKYYADSVKGRFTISRDNSKNTLYLQMNSLRVEDTAVYYCAREGFNWDAFDIWGQGTMVTVSS VL: EIVLTQSPGTLSLSPGERATLSCRASQSVRISYLAWYQQKPGQAPRLLIYGTFSRATGIPDRFSGSGSGTDFTLTISRLEPEDFAVYYCQQYGSSMYTFGQGTKLEIK | binds
HuMab 155c (antibody, V domains shown) VH: EVQLVQSGAEVKKPGESLKISCKGSGYSFTSYWIGWVRQMPGKGLEWMGIIYPGDSDTRYSPSFQGQVTISADKSISTAYLQWSSLKASDTAMYYCARQGSGWYGNYFDYWGQGTLVTVSS VL: EIVLTQSPGTLSLSPGERATLSCRASQSFSRGYLAWYQQKPGQAPRLLIYGASSRVTGIPDRFSGSGSGTDFTLTISRLEPEDFAVYYCQQYDSSPYTFGQGTKLEIK | binds
HuMab 37_(L-63) (cloned, IgG1) (antibody, V domains shown) VH: EVQLVQSGGGLVHPGGSLRLSCAGSGFTFSRYALHWVRQAPGKGLEWVSAIGIGGGTFYADSVKGRFTISRDNAKNSLYLQMNSLRAEDMAVYYCARDTYYDFFDAFDIWGQGTMVTVSS VL: DIQMTQSPSSLSASVGDRVTITCRASQGISSWLAWYQQKPEKAPKSLIYAASSLQSGVPSRFSGSGSGTDFTLTISSLQPEDFATYYCQQYDSYPLTFGGGTKVEIK | binds
HuMab 33_(L-112) (antibody, V domains shown) VH: EVQLVESGGGLVQPGGSLRLSCAASGFTFSRYWMSWVRQAPGKGLEWMANIKQDGSETHYVDSVKGRFTISRDNAKNSLYLQMNSLRAEDTAVYYCAIGDYWGQGTLVTVSS VL: DIQMTQSPSSLSASVGDRVTITCRASQDISSWLAWYQQKPEKAPKSLIYAASSLQSGVPSRFSGSGSGTDFTLTISSLQPEDFATYYCQQYKSYPLTFGGGTKVEIK | binds
HuMab 11_(L-80) (antibody, V domains shown) VH: QVQLVESGGGVVQPGRSLRLSCAASGFTFSNYGIHWVRQAPGKGLEWVAIIWHDGSNSYYVDSVKGRFTMSRDNSKNTVYLQMNSLRAEDTAVYFCARIIGGAFDIWGQGTMVTVSS VL: DIQMTQSPSSLSASVGDRVTITCRASQGISSWLAWYQQKPEKAPKSLIYAASSLQSGVPSRFSGSGSGTDFTLTISSLQPEDFATYYCQQYNSYPITFGQGTRLEIK | binds
HuMab 56c (antibody, V domains shown) VH: QVQVVQSGAEVKKPGSSVKVSCKASGGTFSSYAISWVRQAPGQGLEWMGRIIPILGTAKYAQKFQGRVTIIADKSTSTAYMELSSLRSEDTAVYYCARDQDYYGMDVWGQGTTVTVSS VL: DIQMTQSPSSVSASVGDRVTITCRASQGISSWLAWYQHKPGKAPKLLIYAASSLQSGVPSRFSGSGSGTDFTLTISSLQPEDFATYYCQQTNNFPWTFGQGTKVEIK | binds
